The results in this text go back to patent US20250108100A1, “C-TERMINAL FRAGMENT OF APOLIPOPROTEIN E AND APPLICATION THEREOF IN INHIBITING y-SECRETASE ACTIVITY” (SYNPHATEC (SHANGHAI) BIOPHARMACEUTICAL TECHNOLOGY CO., LTD., priority 2022, published 2025).

Sequences and labels used below:
B1: CT NA1: SEQ ID NO: 13; ApoE CT with 1 original ApoE residue added to the N-terminus (protein)
chain: RARMEEMGSRTRDRLDEVKEQVAEVRAKLEEQAQQIRLQAEAFQARLKSWFEPLVEDMQRQWAGLVEKVQAAVGTSAAPVPSDNH
B2: CT CD10: SEQ ID NO: 24; ApoE CT with 10 C-terminal amino acids deleted (protein)
chain: ARMEEMGSRTRDRLDEVKEQVAEVRAKLEEQAQQIRLQAEAFQARLKSWFEPLVEDMQRQWAGLVEKVQAAVGT
B3: CT ND1: SEQ ID NO: 18; ApoE CT with 1 N-terminal amino acid deleted (protein)
chain: RMEEMGSRTRDRLDEVKEQVAEVRAKLEEQAQQIRLQAEAFQARLKSWFEPLVEDMQRQWAGLVEKVQAAVGTSAAPVPSDNH
B4: CT ND3CD11: SEQ ID NO: 26; ApoE CT minus 3 N-terminal and 11 C-terminal residues (protein)
chain: EEMGSRTRDRLDEVKEQVAEVRAKLEEQAQQIRLQAEAFQARLKSWFEPLVEDMQRQWAGLVEKVQAAVG
B5: CT ND3: SEQ ID NO: 20; ApoE CT with 3 N-terminal amino acids deleted (protein)
chain: EEMGSRTRDRLDEVKEQVAEVRAKLEEQAQQIRLQAEAFQARLKSWFEPLVEDMQRQWAGLVEKVQAAVGTSAAPVPSDNH
B6: CT ND4: SEQ ID NO: 21; ApoE CT with 4 N-terminal amino acids deleted (protein)
chain: EMGSRTRDRLDEVKEQVAEVRAKLEEQAQQIRLQAEAFQARLKSWFEPLVEDMQRQWAGLVEKVQAAVGTSAAPVPSDNH
B7: CT CD5: SEQ ID NO: 23; ApoE CT with 5 C-terminal amino acids deleted (protein)
chain: ARMEEMGSRTRDRLDEVKEQVAEVRAKLEEQAQQIRLQAEAFQARLKSWFEPLVEDMQRQWAGLVEKVQAAVGTSAAPV
B8: CT ND2: SEQ ID NO: 19; ApoE CT with 2 N-terminal amino acids deleted (protein)
chain: MEEMGSRTRDRLDEVKEQVAEVRAKLEEQAQQIRLQAEAFQARLKSWFEPLVEDMQRQWAGLVEKVQAAVGTSAAPVPSDNH
B9: CT NA4: SEQ ID NO: 16; ApoE CT with 4 original ApoE residues added to the N-terminus (protein)
chain: ERLRARMEEMGSRTRDRLDEVKEQVAEVRAKLEEQAQQIRLQAEAFQARLKSWFEPLVEDMQRQWAGLVEKVQAAVGTSAAPVPSDNH
B10: CT ND3CD13: SEQ ID NO: 28; ApoE CT minus 3 N-terminal and 13 C-terminal residues (protein)
chain: EEMGSRTRDRLDEVKEQVAEVRAKLEEQAQQIRLQAEAFQARLKSWFEPLVEDMQRQWAGLVEKVQAA
B11: CT ND3CD12: SEQ ID NO: 27; ApoE CT minus 3 N-terminal and 12 C-terminal residues (protein)
chain: EEMGSRTRDRLDEVKEQVAEVRAKLEEQAQQIRLQAEAFQARLKSWFEPLVEDMQRQWAGLVEKVQAAV
B12: CT NA5: SEQ ID NO: 17; ApoE CT with 5 original ApoE residues added to the N-terminus (protein)
chain: GERLRARMEEMGSRTRDRLDEVKEQVAEVRAKLEEQAQQIRLQAEAFQARLKSWFEPLVEDMQRQWAGLVEKVQAAVGTSAAPVPSDNH
B13: CT ND3CD10: SEQ ID NO: 25; ApoE CT minus 3 N-terminal and 10 C-terminal residues (protein)
chain: EEMGSRTRDRLDEVKEQVAEVRAKLEEQAQQIRLQAEAFQARLKSWFEPLVEDMQRQWAGLVEKVQAAVGT
B14: CT ND3CD20: SEQ ID NO: 31; ApoE CT minus 3 N-terminal and 20 C-terminal residues (protein)
chain: EEMGSRTRDRLDEVKEQVAEVRAKLEEQAQQIRLQAEAFQARLKSWFEPLVEDMQRQWAGL
B15: CT ND3CD15: SEQ ID NO: 30; ApoE CT minus 3 N-terminal and 15 C-terminal residues (protein)
chain: EEMGSRTRDRLDEVKEQVAEVRAKLEEQAQQIRLQAEAFQARLKSWFEPLVEDMQRQWAGLVEKVQ
B16: CT ND3CD14: SEQ ID NO: 29; ApoE CT minus 3 N-terminal and 14 C-terminal residues (protein)
chain: EEMGSRTRDRLDEVKEQVAEVRAKLEEQAQQIRLQAEAFQARLKSWFEPLVEDMQRQWAGLVEKVQA
B17: CT NA2: SEQ ID NO: 14; ApoE CT with 2 original ApoE residues added to the N-terminus (protein)
chain: LRARMEEMGSRTRDRLDEVKEQVAEVRAKLEEQAQQIRLQAEAFQARLKSWFEPLVEDMQRQWAGLVEKVQAAVGTSAAPVPSDNH
B18: CT ND5: SEQ ID NO: 22; ApoE CT with 5 N-terminal amino acids deleted (protein)
chain: MGSRTRDRLDEVKEQVAEVRAKLEEQAQQIRLQAEAFQARLKSWFEPLVEDMQRQWAGLVEKVQAAVGTSAAPVPSDNH
B19: CT NA3: SEQ ID NO: 15; ApoE CT with 3 original ApoE residues added to the N-terminus (protein)
chain: RLRARMEEMGSRTRDRLDEVKEQVAEVRAKLEEQAQQIRLQAEAFQARLKSWFEPLVEDMQRQWAGLVEKVQAAVGTSAAPVPSDNH

The test concerns human APP and β-secretase co-expressed in HEK 293T cells. Description: HEK 293T cells co-expressing APP and β-secretase (BACE1): Aβ ELISA and β-CTF Western blot. Particulars: APP and β-secretase co-expressed, ELISA, vs GFP control. The format is cell-based. The protocol:
The experiment was performed according to the standard procedure in the ELISA analysis kit of Invitrogen Company. • a) The target protein was expressed in HEK 293T cell line. Cells were subcultured one day before transfection, and transfection was performed when the degree of cell adhesion reached 70%-80%. The transfection reagent was lipofectamine2000 (ThermoFisher). • b) 4-6 hours post transfection, medium were replaced with fresh cell culture medium. • c) 36-48 hours post transfection, the cell culture medium was collected, and then the ELISA process was performed or the cell culture medium was frozen in a −80° C. refrigerator. • d) 50 μl of standard samples and experimental samples were added to each well of the 96-well plate. • e) 50 μl of human-derived Aβ40 or Aβ42 or mouse-derived Aβ40 detection antibody was added to each well of the 96-well plate. • f) The above samples were shaken gently and placed at room temperature for 3 hours. • g) The liquid in the well were removed, and the plate was washed 4 times with 1× wash buffer. • h) 100 μl of the buffer containing 1× anti-Rabbit IgG HRP was added. • i) The plate was shaken gently and placed at room temperature for […]. • j) The liquid in the well were removed, and the well was washed 4 times with 1× wash buffer. • k) 100 μl of Stabilized Chromogen was added to each well, and the plate was placed in the dark for 30 minutes at room temperature. • l) 100 μl of Stop Solution was added to each well. • m) The absorbance at 450 nm was measured with a microplate reader. 2.4 qRT-PCR
48 hours after transfection of HEK 293T cells and N2A cells, or 4.5 days after lentivirus infection of neurons, media and lysates were collected. Aβ40 and Aβ42 in the culture medium and cell lysates were detected by an Aβ ELISA kit as indicated in the protocol. (Invitrogen Technology; KHB3481 for human Aβ40, KHB3441 for human Aβ42 and KMB3481 for mouse Aβ40).
Data were analyzed by GraphPad Prism software (v6) using unpaired, paired, or one-sample t-tests. Aβ40 and Aβ42 levels were normalized to the corresponding GFP controls. α-CTF levels were normalized to FL-APP and corresponding GFP controls. All data are represented as mean±SEM. Statistical significance was defined as p<0.05. One, two, three and four stars (*) in the graph indicate p-values <0.05, <0.01, <0.001 and <0.0001, respectively.
Consider B1, for which the “production of Aβ40” value is “still reduces the production of Aβ40”.
The same measure for B2: “still reduce the production of Aβ”; for B3: “can still reduce Aβ40”.
Under B4 stands “can still significantly reduce Aβ40”.
The same measure for B5: “can still reduce Aβ40”.
Consider B6, for which the “production of Aβ40” value is “can still reduce Aβ40”.
Under B7 stands “still reduce the production of Aβ”.
In the case of B8, the “production of Aβ40” value was “can still reduce Aβ40”.
The same measure for B9: “completely lost the ability to reduce Aβ”; for B10: “can still significantly reduce Aβ40”.
The same measure for B11: “can still significantly reduce Aβ40”; for B12: “completely lost the ability to reduce Aβ”; for B13: “can still significantly reduce Aβ40”.
The same measure for B14: “can still significantly reduce Aβ40”.
As to B15, the “production of Aβ40” value was “can still significantly reduce Aβ40”.
As to B16, the “production of Aβ40” value is listed as “can still significantly reduce Aβ40”.
Under B17 stands “completely lost the ability to reduce Aβ”; under B18, “can still reduce Aβ40”; under B19, “completely lost the ability to reduce Aβ”.
